We go through 20 molecules from patent US20150010526, “EVALUATION AND IMPROVEMENT OF NUCLEASE CLEAVAGE SPECIFICITY” (President and Fellows of Harvard College, published 2015).

Series [1] deals with VF2468 ZFN pair expressed in K562 (artificial). The experiment in a line: cell_activity; K562. The conditions noted are these: tags: FokI cleavage domain.
Series [2] concerns the target CCR5-224 ZFN pair expressed in K562 (artificial). Briefly: cell_activity; K562. The conditions noted are these: tags: FokI cleavage domain. On the procedure:
We were unable to obtain site-specific PCR amplification products for three CCR5-224 sites and seven VF2468 sites and therefore could not analyze the occurrence of NHEJ at those loci. Taken together, these observations indicate that off-target sequences identified through the in vitro selection method include many DNA sequences that can be cleaved by ZFNs in human cells.
To deliver ZFN expression plasmids into cells, 15 μg of either active CCR5-224 ZFN DNA or empty vector DNA were used to Nucleofect 2×10⁶ K562 cells in duplicate reactions following the manufacturer's instructions for Cell Line Nucleofector Kit V (Lonza). GFP-positive cells were isolated by FACS 24 hours post-transfection, expanded, and harvested five days post-transfection with the QIAamp DNA Blood Mini Kit (Qiagen).
PCR for 37 potential CCR5-224 substrates and 97 potential VF2468 substrates was performed with Phusion DNA Polymerase (NEB) and primers “[ZFN] […] fwd” and “[ZFN] […] rev” (Table 9) in 1× Phusion HF Buffer supplemented with 3% DMSO. Primers were designed using Primer3³³. The amplified DNA was purified with the Qiagen PCR Purification Kit, eluted with 10 mM Tris-HCl, pH 8.5, and quantified by 1K Chip on a LabChip GX instrument (Caliper Life Sciences) and combined into separate equimolar pools for the catalytically active and empty vector control samples. PCR products were not obtained for 3 CCR5 sites and 7 VF2468 sites, which excluded these samples from further analysis. Multiplexed Illumina library preparation was performed according to the manufacturer's specifications, except that AMPure XP beads (Agencourt) were used for purification following adapter ligation and PCR enrichment steps. Illumina indices 11 (“GGCTAC”) and 12 (“CTTGTA”) were used for ZFN-treated libraries while indices 4 (“TGACCA”) and 6 (“GCCAAT”) were used for the empty vector controls. Library concentrations were quantified by KAPA Library Quantification Kit for Illumina Genome Analyzer Platform (Kapa Biosystems). Equal amounts of the barcoded libraries derived from active- and empty vector-treated cells were diluted to 10 nM and subjected to single read sequencing on an Illumina HiSeq 2000 at the Harvard University FAS Center for Systems Biology Core facility. Sequences were analyzed using Protocol 9 for active ZFN samples and empty vector controls.

The target of another series is CCR5-224 ZFN pair (artificial). Briefly: cleavage_in_vitro; ZFN amount for 50% cleavage of 8 nM linear substrate, 4 h 37 C, 10 mM Mg acetate. The conditions noted are these: tags: N-terminal FLAG, FokI cleavage domain. How it is done:
(§1) FIGS. 6A-D. Expression and quantification of ZFNs. Western blots for CCR5-224 and VF2468 are shown (a) for the ZFN samples used in the in vitro selection, and (b) for quantification. (c) Known quantities of N-terminal FLAG-tagged bacterial alkaline phosphatase (FLAG-BAP) were used to generate a standard curve for ZFN quantification. […] (d) Gels are shown of activity assays of CCR5-224 and VF2468 on an 8 nM linear substrate containing one target cleavage site. The ZFNs were each incubated with their respective substrate for 4 hours at 37° C. DNA in the “+lysate” lane was incubated with an amount of in vitro transcription/translation mixture equivalent to that used in the 2.5 nM ZFN reaction. ZFN-mediated cleavage results in two linear fragments approximately 700 bp and 300 bp in length. 2 nM CCR5-224 and 1 nM VF2468 were the amounts required for 50% cleavage of the linear substrate.
(§2) Test substrates for CCR5-224 and VF2468 were constructed by cloning into the HindIII/XbaI sites of pUC19. PCR with primers “test fwd” and “test rev” and Taq DNA polymerase yielded a linear 1 kb DNA that could be cleaved by the appropriate ZFN into two fragments of sizes ˜300 bp and ˜700 bp. […] Reactions were purified with the Qiagen PCR Purification Kit and analyzed on 1% TAE-agarose gels.

Another series concerns the target VF2468 ZFN pair (artificial). The experiment in a line: cleavage_in_vitro; ZFN amount for 50% cleavage of 8 nM linear substrate, 4 h 37 C, 10 mM Mg acetate; FIG. 9 legend gives spacer as TCGAA. The settings on record: tags: N-terminal FLAG, FokI cleavage domain. How it is done: as §1, §2

Chain of VF2468 ZFN pair expressed in K562 (artificial) (chain, as listed by the source, chain 1 of 2): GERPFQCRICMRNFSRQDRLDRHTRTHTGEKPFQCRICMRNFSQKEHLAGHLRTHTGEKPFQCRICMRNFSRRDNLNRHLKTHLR
Chain of VF2468 ZFN pair expressed in K562 (artificial) (chain, as listed by the source, chain 2 of 2): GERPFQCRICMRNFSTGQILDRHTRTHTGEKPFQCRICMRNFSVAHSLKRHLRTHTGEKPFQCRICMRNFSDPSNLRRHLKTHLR
Chain of CCR5-224 ZFN pair expressed in K562 (artificial) (chain, as listed by the source, chain 1 of 2): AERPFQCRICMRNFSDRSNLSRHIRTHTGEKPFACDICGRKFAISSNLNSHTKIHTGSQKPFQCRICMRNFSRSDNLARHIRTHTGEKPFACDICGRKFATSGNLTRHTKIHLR
Chain of CCR5-224 ZFN pair expressed in K562 (artificial) (chain, as listed by the source, chain 2 of 2): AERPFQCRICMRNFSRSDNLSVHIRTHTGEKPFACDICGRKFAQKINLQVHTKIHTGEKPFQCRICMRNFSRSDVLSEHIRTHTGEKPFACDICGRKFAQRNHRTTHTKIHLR

B1: VF2468 site 80 (dsDNA)
DNA 1: AGCACGGTCATGATGAGTGAGGC
DNA 2: GCCTCACTCATCATGACCGTGCT
In series [1], B1 had an activity of 0.041 % indels.

B2: VF2468 site 73 (dsDNA)
DNA 1: AGCAAAGTCTGTACTGAGTGAGGG
DNA 2: CCCTCACTCAGTACAGACTTTGCT
In turn, B2 gave an activity in series [1] of 1.3 % indels.

B3: CCR5-224 site 9 (dsDNA)
DNA 1: GTCATCTTCATCAAAAGGAACTGCAAAAC
DNA 2: GTTTTGCAGTTCCTTTTGATGAAGATGAC
For the molecule B3, the activity in series [2] stood at 0.035 % indels.

B4: CCR5-224 site 2 CCR2 (dsDNA)
DNA 1: GTCGTCCTCATCTTAATAAACTGCAAAAA
DNA 2: TTTTTGCAGTTTATTAAGATGAGGACGAC
In series [2], B4 registered an activity of 10 % indels.

B5: VF2468 site 11 PTK2B (dsDNA)
DNA 1: AGCAGCGTCTCCCTTGAGTGATGG
DNA 2: CCATCACTCAAGGGAGACGCTGCT
B5 had an activity in series [1] of 0.04 % indels.

B6: CCR5-224 site 3 BTBD10 promoter (dsDNA)
DNA 1: GTTTTCCTCATCAAAGCAAACTGCAAAAT
DNA 2: ATTTTGCAGTTTGCTTTGATGAGGAAAAC
Take B6: the activity in series [2] was 0.07 % indels.

B7: CCR5-224 site 15 KCNB2 (dsDNA)
DNA 1: ATGTTCCTCATCTCCCGAAACTGCAAATG
DNA 2: CATTTGCAGTTTCGGGAGATGAGGAACAT
As to B7, in series [2], the activity came out at 0.071 % indels.

B8: VF2468 site 68 PDE9A (dsDNA)
DNA 1: AGCACCGTCCCCCTCAGTGAGGC
DNA 2: GCCTCACTGAGGGGGACGGTGCT
On to B8, for which, in series [1], the activity was 0.28 % indels.

B9: VF2468 site 79 (dsDNA)
DNA 1: AGCACCGTGGCTTCGAGTGAGGC
DNA 2: GCCTCACTCGAAGCCACGGTGCT
B9 gave an activity in series [1] of 0.029 % indels.

B10: VF2468 site 87 (dsDNA)
DNA 1: AGCATTGTCTCATGTGAGTGAGGT
DNA 2: ACCTCACTCACATGAGACAATGCT
In series [1], B10 yielded an activity of 0.6 % indels.

B11: VF2468 site 72 (dsDNA)
DNA 1: AGAAACGTCGTGGAGGAGTGAGGG
DNA 2: CCCTCACTCCTCCACGACGTTTCT
In series [1], B11 returned an activity of 0.042 % indels.

B12: VF2468 site 18 (dsDNA)
DNA 1: AGCAGAGTCAGACTTGAGTGAGGT
DNA 2: ACCTCACTCAAGTCTGACTCTGCT
In the case of B12, in series [1], the activity came to 0.1 % indels.

B13: CCR5-224 site 25 WBSCR17 (dsDNA)
DNA 1: GTTATCCTCAGCAAACTAAAACTGGAACAG
DNA 2: CTGTTCCAGTTTTAGTTTGCTGAGGATAAC
With B13, in series [2], the activity is 0.12 % indels.

B14: CCR5-224 site 1 CCR5 (dsDNA)
DNA 1: GTCATCCTCATCCTGATAAACTGCAAAAG
DNA 2: CTTTTGCAGTTTATCAGGATGAGGATGAC
By EC50 is commonly meant the concentration giving half of the maximal effect. High values mean a less potent agent, low ones a more potent agent. B14 displayed an activity in series [2] of 44 % indels. Further, a half-maximal response with CCR5-224 ZFN pair (EC50) required 2 nM.

B15: VF2468 site 23 (dsDNA)
DNA 1: AGCAGCGACGCCTGGGAGTGAGGT
DNA 2: ACCTCACTCCCAGGCGTCGCTGCT
As for B15, the activity in series [1] was 1.1 % indels.

B16: VF2468 site 1 VEGF-A promoter (dsDNA)
DNA 1: AGCAGCGTCTTCGAGAGTGAGGA
DNA 2: TCCTCACTCTCGAAGACGCTGCT
With B16, in the series with VF2468 ZFN pair, the response was half-maximal at 1 nM (EC50).

B17: CCR5-224 site 14 (dsDNA)
DNA 1: GTCCTGCTCAGCAAAAGAAACTGAAAAAG
DNA 2: CTTTTTCAGTTTCTTTTGCTGAGCAGGAC
B17 yielded an activity in series [2] of 0.025 % indels.

B18: CCR5-224 site 16 (dsDNA)
DNA 1: GTCTTCCTGATGCTACCAAACTGGAAAAG
DNA 2: CTTTTCCAGTTTGGTAGCATCAGGAAGAC
As to B18, the activity in series [2] was determined as 0.019 % indels.

B19: CCR5-224 site 11 TACR3 (dsDNA)
DNA 1: GTCATCTTCATCAGCATAAACTGTAAAGT
DNA 2: ACTTTACAGTTTATGCTGATGAAGATGAC
As for B19, the activity in series [2] worked out at 0.34 % indels.

B20: CCR5-224 site 21 (dsDNA)
DNA 1: GTCAACCTCAACACCTACAGACTGCAAAAG
DNA 2: CTTTTGCAGTCTGTAGGTGTTGAGGTTGAC
B20 displayed an activity in series [2] of 0.06 % indels.
